Results: the Immune Epitope Database (IEDB)

How the values were obtained:
[1] = target: HLA-A*01:01; experiment: IEDB peptide-MHC binding, purified MHC/direct/fluorescence; filed as Kd, often an IC50 or EC50 that approximates it; ≥ and ≤ were set here for values at or beyond the usual limits of such assays
[2] = target: HLA-A*02:01; experiment: as above
[3] = target: HLA-A*03:01; experiment: as above
[4] = target: HLA-A*11:01; experiment: as above
[5] = target: HLA-A*31:01; experiment: as above
[6] = target: HLA-A*69:01; experiment: as above
[7] = target: HLA-B*07:02; experiment: as above
[8] = target: HLA-B*08:01; experiment: as above; conditions: source organism: Mammarenavirus brazilense
[9] = target: HLA-B*15:01; experiment: as above
[10] = target: HLA-B*27:05; experiment: as above
[11] = target: HLA-B*44:02; experiment: as above
[12] = target: HLA-B*46:01; experiment: as above
[13] = target: HLA-B*48:01; experiment: as above
[14] = target: HLA-B*57:01; experiment: as above
[15] = target: HLA-B*58:01; experiment: as above
[16] = target: HLA-B*18:01; experiment: IEDB peptide-MHC binding, purified MHC/competitive/radioactivity; filed as Kd, often an IC50 or EC50 that approximates it; ≥ and ≤ were set here for values at or beyond the usual limits of such assays
[17] = target: HLA-B*40:01; experiment: as above
[18] = target: HLA-B*40:02; experiment: as above
[19] = target: HLA-B*44:02; experiment: as above
[20] = target: HLA-B*44:03; experiment: as above
[21] = target: HLA-B*45:01; experiment: as above
[22] = target: HLA-B*57:01; experiment: as above
[23] = target: HLA-A*01:01; experiment: as above
[24] = target: HLA-A*26:01; experiment: as above; conditions: source organism: Dengue virus 2 Jamaica/1409/1983
[25] = target: HLA-B*18:01; experiment: IEDB peptide-MHC binding, purified MHC/direct/fluorescence; filed as Kd, often an IC50 or EC50 that approximates it; ≥ and ≤ were set here for values at or beyond the usual limits of such assays
[26] = target: HLA-B*40:01; experiment: as above; conditions: source organism: West Nile virus
[27] = target: HLA-B*46:01; experiment: IEDB peptide-MHC binding, purified MHC/competitive/fluorescence; filed as Kd, often an IC50 or EC50 that approximates it; ≥ and ≤ were set here for values at or beyond the usual limits of such assays
[28] = target: HLA-A*02:01; experiment: as above; conditions: source organism: Salmonella enterica subsp. enterica serovar Typhi
[29] = target: HLA-B*15:01; experiment: as above; conditions: source organism: Salmonella enterica subsp. enterica serovar Typhi
[30] = target: HLA-B*53:01; experiment: IEDB peptide-MHC binding, purified MHC/competitive/radioactivity; filed as Kd, often an IC50 or EC50 that approximates it; ≥ and ≤ were set here for values at or beyond the usual limits of such assays; conditions: source organism: Dengue virus 4 Philippines/H241/1956
[31] = source organism: Mammarenavirus brazilense
[32] = source organism: SARS coronavirus Tor2
[33] = source organism: Dengue virus 4 Philippines/H241/1956
[34] = source organism: Dengue virus 2 Jamaica/1409/1983
[35] = source organism: Lymphocytic choriomeningitis virus (strain Armstrong)
[36] = source organism: West Nile virus
[37] = source organism: Yellow fever virus
[38] = source organism: Mammarenavirus machupoense
[39] = source organism: Dengue virus 3 Martinique/1243/1999
[40] = source organism: Mammarenavirus juninense

EFKSRFFVM
Kd [1, 31]: ≥ 20 µM
Kd [2, 31]: ≥ 20 µM
Kd [3, 31]: ≥ 20 µM
Kd [4, 31]: ≥ 20 µM
Kd [5, 31]: ≥ 20 µM
Kd [6, 31]: ≥ 20 µM
Kd [7, 31]: ≥ 20 µM
Kd [8]: 0.364 µM
Kd [9, 31]: ≥ 20 µM
Kd [10, 31]: ≥ 20 µM
Kd [11, 31]: ≥ 20 µM
Kd [12, 31]: ≥ 20 µM
Kd [13, 31]: ≥ 20 µM
Kd [14, 31]: ≥ 20 µM
Kd [15, 31]: ≥ 20 µM

WEPEFYEAMY
Kd [16, 32]: 1.65 µM
Kd [17, 32]: 5.41 µM
Kd [18, 32]: 7.18 µM
Kd [19, 32]: 2.22 µM
Kd [20, 32]: 0.377 µM
Kd [21, 32]: ≥ 52.4 µM

RFSTSLLFLN
Kd [22, 33]: 1.09 µM

EEHFVETVSL
Kd [16, 32]: 1.04 µM
Kd [17, 32]: 0.0092 µM
Kd [18, 32]: 0.0843 µM
Kd [19, 32]: 0.44 µM
Kd [20, 32]: 0.143 µM
Kd [21, 32]: 0.116 µM

VETFYPKLQA
Kd [16, 32]: ≥ 59.6 µM
Kd [17, 32]: ≥ 69.6 µM
Kd [18, 32]: 12.6 µM
Kd [19, 32]: ≥ 70.2 µM
Kd [20, 32]: ≥ 41.4 µM
Kd [21, 32]: 2.6 µM

ETSWHYDQDH
Kd [23, 34]: ≥ 70.4 µM
Kd [24]: ≥ 40.9 µM
Kd [22, 34]: 2.31 µM

NDLQFGFGW
Kd [16, 35]: 1.8 µM
Kd [17, 35]: ≥ 37.8 µM
Kd [18, 35]: 10.3 µM
Kd [19, 35]: 0.295 µM
Kd [20, 35]: 0.038 µM
Kd [21, 35]: ≥ 77.7 µM

HEDLMAAYV
Kd [16, 32]: 3.91 µM
Kd [17, 32]: 1.2 µM
Kd [18, 32]: 1.33 µM
Kd [19, 32]: 7.08 µM
Kd [20, 32]: 5.06 µM
Kd [21, 32]: 1.69 µM

STSQETWNRQ
Kd ([22]; source organism: Dengue virus 1 Brazil/97-11/1997): 0.943 µM

IDYVPLKSAT
Kd [16, 32]: ≥ 70.5 µM
Kd [17, 32]: ≥ 69.6 µM
Kd [18, 32]: ≥ 50.6 µM
Kd [19, 32]: ≥ 40 µM
Kd [20, 32]: ≥ 70.1 µM
Kd [21, 32]: 2.05 µM

HECFVKRVDW
Kd [16, 32]: 6.62 µM
Kd [17, 32]: ≥ 69.6 µM
Kd [18, 32]: 5.78 µM
Kd [19, 32]: 0.302 µM
Kd [20, 32]: 0.187 µM
Kd [21, 32]: ≥ 33.8 µM

TRAVGKPLL
Kd [2, 36]: ≥ 20 µM
Kd [3, 36]: ≥ 20 µM
Kd [6, 36]: ≥ 20 µM
Kd [7, 36]: ≥ 20 µM
Kd [9, 36]: ≥ 20 µM
Kd [25, 36]: ≥ 20 µM
Kd [10, 36]: ≥ 20 µM
Kd [26]: ≥ 20 µM
Kd [11, 36]: ≥ 20 µM
Kd [12, 36]: ≥ 20 µM
Kd [13, 36]: ≥ 20 µM
Kd [14, 36]: ≥ 20 µM
Kd [15, 36]: ≥ 20 µM

NELSLALGL
Kd [16, 32]: 0.0909 µM
Kd [17, 32]: 0.277 µM
Kd [18, 32]: 0.154 µM
Kd [19, 32]: 0.409 µM
Kd [20, 32]: 0.0285 µM
Kd [21, 32]: 5.85 µM

PASIAARGYI
Kd [22, 34]: 0.365 µM

SSARYDVAL
Kd [1, 37]: ≥ 20 µM
Kd [2, 37]: ≥ 20 µM
Kd [3, 37]: ≥ 20 µM
Kd [4, 37]: ≥ 20 µM
Kd [5, 37]: ≥ 20 µM
Kd ([7]; source organism: Yellow fever virus 17D): ≥ 20 µM
Kd [25, 37]: ≥ 20 µM
Kd [10, 37]: ≥ 20 µM
Kd [11, 37]: ≥ 20 µM
Kd [12, 37]: ≥ 20 µM
Kd [14, 37]: ≥ 20 µM
Kd [15, 37]: ≥ 20 µM

KETLYRIDG
Kd [16, 32]: ≥ 77.5 µM
Kd [17, 32]: ≥ 46 µM
Kd [18, 32]: ≥ 45.6 µM
Kd [19, 32]: ≥ 57.7 µM
Kd [20, 32]: ≥ 30.6 µM
Kd [21, 32]: ≥ 24 µM

KELSPRWYF
Kd [16, 32]: 1.88 µM
Kd [17, 32]: 0.889 µM
Kd [18, 32]: 0.0073 µM
Kd [19, 32]: 0.0634 µM
Kd [20, 32]: 0.0528 µM
Kd [21, 32]: 6.01 µM

KDMPGGYCL
Kd [16, 38]: ≥ 38.9 µM
Kd [17, 38]: 17.7 µM
Kd [18, 38]: 0.235 µM
Kd [19, 38]: ≥ 42.5 µM
Kd [20, 38]: ≥ 78.1 µM
Kd [21, 38]: 18.2 µM

IAFCNWAFV
Kd ([6]; source organism: Vibrio cholerae): 0.06 µM
Kd ([27]; source organism: Vibrio cholerae 2740-80): 4.36 µM

RTSKKRSWPL
Kd [22, 34]: 0.69 µM

AEIVDTVSAL
Kd [16, 32]: ≥ 23.1 µM
Kd [17, 32]: 0.00114 µM
Kd [18, 32]: 2.57 µM
Kd [19, 32]: 0.0864 µM
Kd [20, 32]: 0.105 µM
Kd [21, 32]: 0.287 µM

KQSSFLSSL
Kd [28]: 0.0381 µM
Kd [29]: 0.0941 µM

SSSMRKTDWL
Kd [23, 39]: ≥ 49.7 µM
Kd [22, 39]: 3.14 µM

TEGLCVDIPG
Kd [16, 32]: ≥ 70.5 µM
Kd [17, 32]: ≥ 69.6 µM
Kd [18, 32]: 0.0918 µM
Kd [19, 32]: ≥ 43.3 µM
Kd [20, 32]: ≥ 34.9 µM
Kd [21, 32]: 0.0748 µM

EAVNDSRFW
Kd [30]: 0.0132 µM
Kd [22, 33]: 1.26 µM

ISRDIMDAY
Kd ([27]; source organism: Bacillus cereus G9241): 0.0416 µM

EEAIRHVRAW
Kd [16, 32]: ≥ 43.1 µM
Kd [17, 32]: ≥ 69.6 µM
Kd [18, 32]: ≥ 70.8 µM
Kd [19, 32]: 0.0073 µM
Kd [20, 32]: 0.0142 µM
Kd [21, 32]: 4.77 µM

SDFLISEML
Kd [16, 40]: ≥ 56 µM
Kd [17, 40]: 11.5 µM
Kd [18, 40]: 0.0171 µM
Kd [19, 40]: 2.4 µM
Kd [20, 40]: ≥ 51.5 µM
Kd [21, 40]: ≥ 27.6 µM

NDNFLMSNV
Kd [16, 38]: ≥ 43.6 µM
Kd [17, 38]: ≥ 27.6 µM
Kd [18, 38]: 2.99 µM
Kd [19, 38]: 13.1 µM
Kd [20, 38]: 19.6 µM
Kd [21, 38]: ≥ 10 µM

KDYMSLSEQL
Kd [16, 32]: ≥ 70.5 µM
Kd [17, 32]: 6.19 µM
Kd [18, 32]: 5.78 µM
Kd [19, 32]: ≥ 25.6 µM
Kd [20, 32]: ≥ 29.6 µM

ADSDDILTL
Kd [16, 35]: ≥ 77.5 µM
Kd [17, 35]: ≥ 26.9 µM
Kd [18, 35]: ≥ 22.2 µM
Kd [19, 35]: ≥ 20.8 µM
Kd [20, 35]: 6.06 µM
Kd [21, 35]: ≥ 77.7 µM

SELVIGAVI
Kd [16, 32]: 2.59 µM
Kd [17, 32]: 0.0889 µM
Kd [18, 32]: 0.0559 µM
Kd [19, 32]: 0.605 µM
Kd [20, 32]: 0.426 µM
Kd [21, 32]: 0.155 µM

EETFKLSYGI
Kd [16, 32]: 19.7 µM
Kd [17, 32]: 3.58 µM
Kd [18, 32]: 0.194 µM
Kd [19, 32]: 0.076 µM
Kd [20, 32]: 0.13 µM
Kd [21, 32]: 2.54 µM
